# Experimental data from patent publication US8524231.
# Columns and labels:
# [1] = target: biotinylated human IL-1Beta (human) (UniProt P01584); test: competition ELISA: periplasmic Fab extract plus biotinylated IL-1Beta on coated mouse mAb (competitor); reduced signal means competition
# [2] = target: biotinylated human IL-1Beta (human) (UniProt P01584); test: ELISA based competition assay against the antagonistic reference mouse mAb (competitor)
# [3] = target: biotinylated human IL-1Beta (human) (UniProt P01584); test: cell-based or functional assay
# Sequence of biotinylated human IL-1Beta (human) (P01584 117-269 limits assumed): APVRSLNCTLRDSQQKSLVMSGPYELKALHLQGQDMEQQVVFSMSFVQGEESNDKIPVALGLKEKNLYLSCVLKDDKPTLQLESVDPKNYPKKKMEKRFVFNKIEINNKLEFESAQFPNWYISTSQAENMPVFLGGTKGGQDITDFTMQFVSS
signal (OD) in the competition assay [1] [OD],concentration at which competition is seen [2] [µg/mL],IC50 in the bioassay [3] [µg/mL],Binder
0.205,–,–,"antagonistic Fab 1A1 (Fab, part only; not given: lambda light chain, constant domains, V domains shown, not shown: a dimerising Fc or GST) VH: EVQLVESGGGLVQPGGSLRLSCAASGFTFDDYAMSWVRQAPGKGLEWVSTISWNGGATYYAESMKGRFTISRDNAKNTLYLQMNSLKSEDTAVYYCAKPYYSDYVGVEYDYWGQGTQVTVSS"
0.444,–,–,"antagonistic Fab 1B3 (Fab, part only; not given: lambda light chain, constant domains, V domains shown, not shown: a dimerising Fc or GST) VH: EVQLVQSGAELRNPGASVKVSCKASGYTFTSYYIDWVRQAPGQGLEWMGRIDPEDGGTKYAQKFQGRVTFTADTSTSTAYVELSSLRSEDTAVYYCARSGRYELDYWGQGTQVTVSS"
0.498,–,–,"Fab 1G1 (clone related to 1B3) (Fab, part only; not given: light chain, V domains shown, part only) VH: EVQLVQSGAELRNPGASVKVSCKASGYTFTSYYTDWVRQAPGQGLEWMGRIDPEDGDTKYAQKFQGRVTFTADTSTSTAYVELTSLRSEDTAVYYCLRSGAYELDYWGQGTQVTVSS"
0.386,> 50,3,"antagonistic Fab 1C3 (Fab, part only; not given: lambda light chain, constant domains, V domains shown, not shown: a dimerising Fc or GST) VH: EVQLVESGGGLVQPGGSLRLSCAASGFTFSSYWMYWVRQAPGKGLEWVSAINTGGGRTYYADSVKGRFTISRDNAKNTLYLQMNSLKSEDTAVYYCAKGTSADGSSWYVPADPYDYWGQGTQVTVSS"
